Results as given in publication PMC3391105.

How the values were obtained:
[1] = molecular target: soluble human FcRn, GST-tagged (hFcRn heavy chain ectodomains with human β2-microglobulin) (human) (UniProt P55899); experiment: SPR
[2] = molecular target: soluble mouse FcRn, GST-tagged (mFcRn heavy chain ectodomains with human β2-microglobulin) (mouse | human) (UniProt Q61559); experiment: SPR
UniProt Q61559, sequence (Q61559 22-297, chain 1 of 2): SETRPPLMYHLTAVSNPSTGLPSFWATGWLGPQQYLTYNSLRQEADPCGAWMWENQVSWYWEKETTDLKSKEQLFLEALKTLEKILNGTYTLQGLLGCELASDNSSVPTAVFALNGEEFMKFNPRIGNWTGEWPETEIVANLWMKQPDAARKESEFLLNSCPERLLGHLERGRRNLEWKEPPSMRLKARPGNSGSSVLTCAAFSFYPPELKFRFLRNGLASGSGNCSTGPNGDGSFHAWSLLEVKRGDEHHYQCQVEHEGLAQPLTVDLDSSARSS
UniProt Q61559, sequence (P61769 21-119, chain 2 of 2, further chain): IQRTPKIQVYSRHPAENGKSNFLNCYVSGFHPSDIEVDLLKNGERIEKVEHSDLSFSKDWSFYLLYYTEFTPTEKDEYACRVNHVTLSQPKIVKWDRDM

UniProt P55899, sequence (P55899 24-297, chain 1 of 2): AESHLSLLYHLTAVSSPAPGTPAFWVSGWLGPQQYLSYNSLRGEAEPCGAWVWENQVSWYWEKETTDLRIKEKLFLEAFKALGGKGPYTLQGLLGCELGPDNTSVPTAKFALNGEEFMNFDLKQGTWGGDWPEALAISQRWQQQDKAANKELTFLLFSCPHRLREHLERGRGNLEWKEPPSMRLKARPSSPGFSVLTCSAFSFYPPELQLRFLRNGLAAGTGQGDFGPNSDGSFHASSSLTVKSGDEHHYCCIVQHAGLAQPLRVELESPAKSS
UniProt P55899, sequence (P61769 21-119, chain 2 of 2, further chain): as the sequence (P61769 21-119, chain 2 of 2, further chain) above

Substance | KD1 (heterogeneous ligand model) [1] [nM] | KD2 (heterogeneous ligand model) [1] [nM] | KD1 (heterogeneous ligand model) [2] [nM] | KD2 (heterogeneous ligand model) [2] [nM]
anti-CEA cT84.66 scFv-Fc H435R (Fc fusion) | 9.4 | 197 | 1.8 | 122
anti-CEA cT84.66 scFv-Fc WT (nonmutated) (Fc fusion) | – | – | – | 43.8
anti-CEA cT84.66 scFv-Fc H435Q (Fc fusion) | – | – | 80.9 | 400
